Measurements taken from US20240059769A1 (BIOLOJIC DESIGN, published 2024).

T1: IL-4 (Homo sapiens (Human), UniProt P05112 25-153)
T1 sequence: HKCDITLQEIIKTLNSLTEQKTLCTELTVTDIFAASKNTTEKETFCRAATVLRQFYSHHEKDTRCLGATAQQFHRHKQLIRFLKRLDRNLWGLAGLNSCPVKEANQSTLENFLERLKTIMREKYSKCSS


How the values were obtained:
[1] = biological target: T2, recombinant human IL-13 (human, UniProt P35225 35-146); test: cell-based or functional assay
[2] = biological target: T3, IL-2 (Homo sapiens (Human), UniProt P60568 21-153); test: specificity ELISA, 250 ng ligand coated
[3] = biological target: T4, recombinant cynomolgus monkey IL-13 (cynomolgus monkey, UniProt Q0PW92 21-132); test: ELISA, ligand coated, IgG 1-1000 nM
T4 construct: bought; also called rc-IL-13; cIL-13

[4] = biological target: T5, human TSLP (human, UniProt Q969D9 29-159); test: ELISA, ligand coated, IgG 1-1000 nM
T5 construct: also called hTSLP; rhTSLP

[5] = biological target: T6, cynomolgus monkey (cyno) TSLP (cynomolgus monkey, UniProt A0A7N9CAT7 29-159); test: ELISA, ligand coated, IgG 1-1000 nM
T6 construct: also called cTSLP; cynomolgus TSLP

[6] = biological target: T2, recombinant human IL-13; test: SPR (Biacore T200), antibody captured, hIL-13 analyte 20-0.6 nM
Procedure: Recombinant cyno IL-13 (rc-IL-13) was tested at 200 nM with a 2-fold dilution (FIGS. 5C-5D).

[7] = biological target: BSA (UniProt P02769 25-607); test: ELISA, 250 ng coated ligand per well, 100 nM IgG, anti-human Fc-HRP
[8] = biological target: T2, recombinant human IL-13; test: SPR
[9] = biological target: T5, human TSLP; test: SPR
[10] = biological target: T7, hTSLP-His (human, UniProt Q969D9 29-159, limits assumed); test: cell-based or functional assay
[11] = biological target: T7, hTSLP-His; test: competition ELISA, TSLP-R-Fc coated, 3 nM hTSLP-His pre-mixed with IgG
Source text: Wells were then washed three times with TBS 0.05% tween (TBS-T) and blocked with TBS-T containing 2% BSA (w/v).

[12] = biological target: T3, IL-2; test: ELISA, 250 ng coated ligand per well, 100 nM IgG, anti-human Fc-HRP
[13] = biological target: T1, IL-4; test: as above
[14] = biological target: T7, hTSLP-His; test: competition ELISA, TSLP-R coated, soluble TSLP-R as competitor for hTSLP

T2 sequence (P35225 35-146 limits assumed): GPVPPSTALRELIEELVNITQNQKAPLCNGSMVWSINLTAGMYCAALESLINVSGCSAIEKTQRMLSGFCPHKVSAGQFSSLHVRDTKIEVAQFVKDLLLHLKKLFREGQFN
T6 sequence (A0A7N9CAT7 entry or part of it): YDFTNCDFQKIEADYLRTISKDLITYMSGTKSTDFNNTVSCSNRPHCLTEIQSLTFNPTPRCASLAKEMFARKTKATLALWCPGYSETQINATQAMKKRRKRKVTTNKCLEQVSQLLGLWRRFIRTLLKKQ
T4 sequence (Q0PW92 entry or part of it): as the sequence (P35225 35-146 limits assumed) above, with G1S, R10K, M42V, S67N, H83R, L100V counted along it
T3 sequence (P60568 21-153 limits assumed): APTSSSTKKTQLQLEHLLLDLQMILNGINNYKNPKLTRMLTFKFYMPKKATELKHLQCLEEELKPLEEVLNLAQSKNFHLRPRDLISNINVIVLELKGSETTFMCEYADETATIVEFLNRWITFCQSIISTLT
Sequence of BSA (P02769 25-607 limits assumed): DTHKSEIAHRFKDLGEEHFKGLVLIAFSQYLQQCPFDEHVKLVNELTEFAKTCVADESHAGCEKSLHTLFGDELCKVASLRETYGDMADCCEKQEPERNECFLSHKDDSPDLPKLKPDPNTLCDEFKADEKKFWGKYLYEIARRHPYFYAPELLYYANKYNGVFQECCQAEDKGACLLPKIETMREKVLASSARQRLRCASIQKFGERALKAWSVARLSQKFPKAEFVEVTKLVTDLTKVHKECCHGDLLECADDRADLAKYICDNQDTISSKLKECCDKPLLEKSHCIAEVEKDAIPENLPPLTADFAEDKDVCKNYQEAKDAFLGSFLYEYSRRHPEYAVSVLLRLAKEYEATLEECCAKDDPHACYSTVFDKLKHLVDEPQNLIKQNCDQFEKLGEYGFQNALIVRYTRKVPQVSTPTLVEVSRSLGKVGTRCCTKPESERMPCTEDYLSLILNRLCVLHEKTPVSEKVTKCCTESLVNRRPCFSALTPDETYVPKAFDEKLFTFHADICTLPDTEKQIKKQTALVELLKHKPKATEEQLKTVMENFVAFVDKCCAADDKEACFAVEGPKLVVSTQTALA

Row | IC50, HEK-Blue IL-4/IL-13 reporter (0.4 nM rh-IL-13) [1] [nM] | binding result [2] | EC50 [3] [nM] | EC50 [4] [nM] | EC50 [5] [nM] | Kd [6] [nM] | koff [6] [s⁻¹] | kon [6] [M⁻¹ s⁻¹] | binding result [7] | Kd [8] [nM] | koff [8] [s⁻¹] | kon [8] [M⁻¹ s⁻¹] | Kd [9] [nM] | koff [9] [s⁻¹] | kon [9] [M⁻¹ s⁻¹] | IC50, TSLP dependent pSTAT5 activation in MUTZ5 cells (14 pM TSLP) [10] [pM] | IC50 [11] [nM] | binding result [12] | binding result [13] | IC50 [14] [nM] | Binder
1 | 25 | no binding (tested: 100 nM IgG) | 1.5 | 12.8 | 148 | 0.903 | 0.0036 | 4.07e+06 | no binding (tested: 100 nM) |  |  |  |  |  |  |  |  |  |  |  | BDG33.025 (antibody, V domains shown, standard IgG; also called BGD33.025; BDG33.0025) VH: QMQLVESGGGVVQPGRSLRLSCAASGFTFRTYGMHWVRQAPGKGLEWVADIWYDGSNKHYADSVKGRFTITRDNSKNTLNLQMNSLRAEDTAVYYCARAPQWYLVAEPFDLWGQGTMVTVSS VL: SYVLTQPPSVSVAPGQTARITCGGNLIGSKLVHWYQQKPGQAPVLVVYDDSDRPSLIPERFSGSNSGNTATLTISRVEAGDEADYYCQVWDSSSDGVVFGGGTKLTVL
2 | 1.3 |  | 7.1 | 2.5 | 8.2 | 3.65 | 0.0157 | 4.31e+06 | no binding (tested: 100 nM) | 3.01 | 0.00457 | 1.52e+06 | 0.0625 | 6.84e-05 | 1.09e+06 | 13 | 0.41 | no binding (tested: 100 nM) | no binding (tested: 100 nM) |  | BDG33.023 (antibody, V domains shown, standard IgG; also called BGD33.023; BDG33.0023) VH: QMQLVESGGGVVQPGRSLRLSCAASGFAFRTYGMHWVRQAPGKGLEWVAVIWYDGSNTHYADSVKGRFTITRDNSKNTLNLQMNSLRAEDTAVYYCARAPQWYLSAEAFDLWGQGTMVTVSS VL: SYVLTQPPSVSVAPGQTARITCGGNLIGSKLVHWYQQKPGQAPVLVVYDDSDRPSRIPERFSGSNSGNTATLTISRVEAGDEADYYCQVWDHSSDHVVFGGGTKLTVL
3 |  |  |  |  |  |  |  |  |  |  |  |  |  |  |  |  |  |  |  | 3 | TSLP-R-Fc tag (Fc fusion, UniProt Q9HC73 23-231, looked up, bought; also called TSLP receptor; not shown: Fc tag) QGGAAEGVQIQIIYFNLETVQVTWNASKYSRTNLTFHYRFNGDEAYDQCTNYLLQEGHTSGCLLDAEQRDDILYFSIRNGTHPVFTASRWMVYYLKPSSPKHVRFSWHQDAVTVTCSDLSYGDLLYEVQYRSPFDTEWQSKQENTCNVTIEGLDAEKCYSFWVRVKAMEDVYGPDTYPSDWSEVTCWQRGEIRDACAETPTPPKPKLSK
